Numbering of substitutions follows the chain as printed.
T1: RADIL, Q96JH8
T1 sequence (Q96JH8 971-1071, limits assumed, looked up): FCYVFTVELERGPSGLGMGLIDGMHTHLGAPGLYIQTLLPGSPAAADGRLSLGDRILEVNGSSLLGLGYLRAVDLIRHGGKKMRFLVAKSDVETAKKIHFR

T2: SNTG2, Q9NY99
T2 sequence (Q9NY99 68-166, limits assumed, looked up): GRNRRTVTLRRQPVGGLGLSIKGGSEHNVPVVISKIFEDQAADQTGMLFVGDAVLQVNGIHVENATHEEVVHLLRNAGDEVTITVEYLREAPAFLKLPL

T3: MPP2, Q14168
T3 sequence (Q14168 180-250, limits assumed, looked up): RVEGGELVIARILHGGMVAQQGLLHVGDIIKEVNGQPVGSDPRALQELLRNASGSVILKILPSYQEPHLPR

T4: PARD3B_1, Q8TEW8
T4 sequence (Q8TEW8 196-299, limits assumed, looked up): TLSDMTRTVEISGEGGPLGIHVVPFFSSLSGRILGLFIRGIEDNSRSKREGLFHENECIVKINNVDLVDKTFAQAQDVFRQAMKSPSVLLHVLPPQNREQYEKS

T5: SNTA1, Q13424
T5 sequence (Q13424 82-180, limits assumed, looked up): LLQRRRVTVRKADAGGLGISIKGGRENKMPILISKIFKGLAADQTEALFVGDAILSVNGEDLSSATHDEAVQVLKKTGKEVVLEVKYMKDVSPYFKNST

T6: ARHGAP21, Q5T5U3
T6 sequence (Q5T5U3 45-169, limits assumed, looked up): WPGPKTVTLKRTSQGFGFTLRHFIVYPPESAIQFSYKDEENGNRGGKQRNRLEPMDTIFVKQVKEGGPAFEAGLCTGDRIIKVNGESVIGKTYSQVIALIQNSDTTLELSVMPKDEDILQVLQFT

T7: DLG3_2, Q92796
T7 sequence (Q92796 221-321, limits assumed, looked up): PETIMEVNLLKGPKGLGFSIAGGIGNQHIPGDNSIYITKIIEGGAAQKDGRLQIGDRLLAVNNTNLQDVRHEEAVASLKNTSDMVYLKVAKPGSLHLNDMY

T8: APBA1_2, Q02410
T8 sequence (Q02410 742-832, limits assumed, looked up): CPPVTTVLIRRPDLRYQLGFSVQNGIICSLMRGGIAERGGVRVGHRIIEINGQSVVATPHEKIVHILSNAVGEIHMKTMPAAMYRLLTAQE

T9: MPP6, Q9NZW5
T9 sequence (Q9NZW5 125-219, limits assumed, looked up): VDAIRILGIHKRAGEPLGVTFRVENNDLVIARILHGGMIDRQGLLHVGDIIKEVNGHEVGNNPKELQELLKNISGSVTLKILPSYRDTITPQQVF

T10: FRMPD1, Q5SYB0
T10 sequence (Q5SYB0 52-145, limits assumed, looked up): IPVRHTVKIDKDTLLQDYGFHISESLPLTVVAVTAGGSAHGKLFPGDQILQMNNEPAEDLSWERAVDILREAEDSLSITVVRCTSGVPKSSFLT

T11: APBA2_2, Q99767
T11 sequence (Q99767 654-744, limits assumed, looked up): T8 sequence (Q02410 742-832, limits assumed, looked up) with R10K, R15K, P59A, H65Q, I66A, A70S, Y84F, A89G

T12: SIPA1L2, Q9P2F8
T12 sequence (Q9P2F8 945-1036, limits assumed, looked up): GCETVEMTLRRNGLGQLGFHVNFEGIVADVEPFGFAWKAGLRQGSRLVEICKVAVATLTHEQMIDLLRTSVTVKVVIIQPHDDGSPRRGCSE


These binders were tested against T1, RADIL, Q96JH8 (assay: holdup assay). Conditions: plain residues with an end cap or a label only (N-terminal biotin on a linker: ttds).
Parameters: key: below the threshold = too weak to quantify, mostly under pKd 3.1 to 4

Row | pKd | Binder
1 | 3.53 | RSLEEEESQL [GRASP, Q7Z6J2]
2 | 3.7 | SVWLRKETRV [CYSLTR2, Q9NS75]

These binders were tested against HTRA1, Q92743 (assay: holdup assay). Conditions: plain residues with an end cap or a label only (N-terminal biotin on a linker: ttds).
HTRA1, Q92743, sequence (Q92743 360-477): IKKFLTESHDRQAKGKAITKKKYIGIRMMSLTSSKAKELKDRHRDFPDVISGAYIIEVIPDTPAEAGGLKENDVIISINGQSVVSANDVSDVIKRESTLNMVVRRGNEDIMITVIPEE
Parameters: key: below the threshold = too weak to quantify, mostly under pKd 3.1 to 4

Row | pKd | Binder
3 | 4.33 | RSLEEEESQL [GRASP, Q7Z6J2]
4 | below the threshold | SVWLRKETRV [CYSLTR2, Q9NS75]

What follows are binders tested against DLG5_1, Q8TDM6 (assay: holdup assay). Conditions: plain residues with an end cap or a label only (N-terminal biotin on a linker: ttds).
DLG5_1, Q8TDM6, sequence (Q8TDM6 617-713): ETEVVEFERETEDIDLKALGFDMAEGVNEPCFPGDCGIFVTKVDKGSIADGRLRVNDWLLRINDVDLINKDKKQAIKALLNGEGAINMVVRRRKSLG
Parameters: key: below the threshold = too weak to quantify, mostly under pKd 3.1 to 4

Row | pKd | Binder
5 | below the threshold | RSLEEEESQL [GRASP, Q7Z6J2]
6 | below the threshold | SVWLRKETRV [CYSLTR2, Q9NS75]

The binders below were run against T2, SNTG2, Q9NY99 (assay: holdup assay). Conditions: plain residues with an end cap or a label only (N-terminal biotin on a linker: ttds).
Parameters: key: below the threshold = too weak to quantify, mostly under pKd 3.1 to 4

Row | pKd | Binder
7 | below the threshold | RSLEEEESQL [GRASP, Q7Z6J2]
8 | 5.09 | SVWLRKETRV [CYSLTR2, Q9NS75]

The binders below were run against T3, MPP2, Q14168 (assay: holdup assay). Conditions: plain residues with an end cap or a label only (N-terminal biotin on a linker: ttds).
Parameters: key: below the threshold = too weak to quantify, mostly under pKd 3.1 to 4

Row | pKd | Binder
9 | below the threshold | RSLEEEESQL [GRASP, Q7Z6J2]
10 | below the threshold | SVWLRKETRV [CYSLTR2, Q9NS75]

Each binder was assayed against T4, PARD3B_1, Q8TEW8 (assay: holdup assay). Conditions: plain residues with an end cap or a label only (N-terminal biotin on a linker: ttds).
Parameters: key: below the threshold = too weak to quantify, mostly under pKd 3.1 to 4

Row | pKd | Binder
11 | 4.28 | RSLEEEESQL [GRASP, Q7Z6J2]
12 | below the threshold | SVWLRKETRV [CYSLTR2, Q9NS75]

Each binder was assayed against Inadl_9, Q8NI35 (assay: holdup assay). Conditions: plain residues with an end cap or a label only (N-terminal biotin on a linker: ttds).
Inadl_9, Q8NI35, sequence (Q8NI35 1530-1615): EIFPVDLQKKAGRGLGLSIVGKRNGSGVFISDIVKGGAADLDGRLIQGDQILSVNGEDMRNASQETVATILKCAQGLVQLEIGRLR
Parameters: key: below the threshold = too weak to quantify, mostly under pKd 3.1 to 4

Row | pKd | Binder
13 | below the threshold | RSLEEEESQL [GRASP, Q7Z6J2]
14 | 3.39 | SVWLRKETRV [CYSLTR2, Q9NS75]

What follows are binders tested against DLG4_3, P78352 (assay: holdup assay). Conditions: plain residues with an end cap or a label only (N-terminal biotin on a linker: ttds).
DLG4_3, P78352, sequence (P78352 306-403): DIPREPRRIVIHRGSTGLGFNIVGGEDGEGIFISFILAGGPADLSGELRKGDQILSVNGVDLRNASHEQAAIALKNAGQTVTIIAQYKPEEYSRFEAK
Parameters: key: below the threshold = too weak to quantify, mostly under pKd 3.1 to 4

Row | pKd | Binder
15 | 3.75 | RSLEEEESQL [GRASP, Q7Z6J2]
16 | 6.55 | SVWLRKETRV [CYSLTR2, Q9NS75]

The binders below were run against T5, SNTA1, Q13424 (assay: holdup assay). Conditions: plain residues with an end cap or a label only (N-terminal biotin on a linker: ttds).
Parameters: key: below the threshold = too weak to quantify, mostly under pKd 3.1 to 4

Row | pKd | Binder
17 | below the threshold | RSLEEEESQL [GRASP, Q7Z6J2]
18 | 5.41 | SVWLRKETRV [CYSLTR2, Q9NS75]

Each binder was assayed against T6, ARHGAP21, Q5T5U3 (assay: holdup assay). Conditions: plain residues with an end cap or a label only (N-terminal biotin on a linker: ttds).
Parameters: key: below the threshold = too weak to quantify, mostly under pKd 3.1 to 4

Row | pKd | Binder
19 | 3.83 | RSLEEEESQL [GRASP, Q7Z6J2]
20 | below the threshold | SVWLRKETRV [CYSLTR2, Q9NS75]

The binders below were run against FRMPD3, Q5JV73 (assay: holdup assay). Conditions: plain residues with an end cap or a label only (N-terminal biotin on a linker: ttds).
FRMPD3, Q5JV73, sequence (Q5JV73 12-100): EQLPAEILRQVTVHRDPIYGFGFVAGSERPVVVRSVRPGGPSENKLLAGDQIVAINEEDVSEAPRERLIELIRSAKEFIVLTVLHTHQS
Parameters: key: below the threshold = too weak to quantify, mostly under pKd 3.1 to 4

Row | pKd | Binder
21 | 3.63 | RSLEEEESQL [GRASP, Q7Z6J2]
22 | below the threshold | SVWLRKETRV [CYSLTR2, Q9NS75]

These binders were tested against DLG2_2, Q15700 (assay: holdup assay). Conditions: plain residues with an end cap or a label only (N-terminal biotin on a linker: ttds).
Parameters: key: below the threshold = too weak to quantify, mostly under pKd 3.1 to 4

Row | pKd | Binder
23 | below the threshold | RSLEEEESQL [GRASP, Q7Z6J2]
24 | 5.24 | SVWLRKETRV [CYSLTR2, Q9NS75]

The binders below were run against MAGI2_5, Q86UL8 (assay: holdup assay). Conditions: plain residues with an end cap or a label only (N-terminal biotin on a linker: ttds).
MAGI2_5, Q86UL8, sequence (Q86UL8 915-1017): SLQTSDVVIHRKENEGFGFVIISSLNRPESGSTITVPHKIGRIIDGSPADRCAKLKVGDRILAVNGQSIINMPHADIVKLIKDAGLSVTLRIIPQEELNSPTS
Parameters: key: below the threshold = too weak to quantify, mostly under pKd 3.1 to 4

Row | pKd | Binder
25 | 4.42 | RSLEEEESQL [GRASP, Q7Z6J2]
26 | 3.93 | SVWLRKETRV [CYSLTR2, Q9NS75]

The binders below were run against GRIP2_5, Q9C0E4 (assay: holdup assay). Conditions: plain residues with an end cap or a label only (N-terminal biotin on a linker: ttds).
GRIP2_5, Q9C0E4, sequence (Q9C0E4 544-642): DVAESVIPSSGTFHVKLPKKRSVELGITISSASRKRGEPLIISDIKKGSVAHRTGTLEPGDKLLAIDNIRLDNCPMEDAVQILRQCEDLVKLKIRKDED
Parameters: key: below the threshold = too weak to quantify, mostly under pKd 3.1 to 4

Row | pKd | Binder
27 | below the threshold | RSLEEEESQL [GRASP, Q7Z6J2]
28 | below the threshold | SVWLRKETRV [CYSLTR2, Q9NS75]

These binders were tested against T7, DLG3_2, Q92796 (assay: holdup assay). Conditions: plain residues with an end cap or a label only (N-terminal biotin on a linker: ttds).
Parameters: key: below the threshold = too weak to quantify, mostly under pKd 3.1 to 4

Row | pKd | Binder
29 | 3.63 | RSLEEEESQL [GRASP, Q7Z6J2]
30 | 5.32 | SVWLRKETRV [CYSLTR2, Q9NS75]

What follows are binders tested against T8, APBA1_2, Q02410 (assay: holdup assay). Conditions: plain residues with an end cap or a label only (N-terminal biotin on a linker: ttds).
Parameters: key: below the threshold = too weak to quantify, mostly under pKd 3.1 to 4

Row | pKd | Binder
31 | 3.65 | RSLEEEESQL [GRASP, Q7Z6J2]
32 | 3.84 | SVWLRKETRV [CYSLTR2, Q9NS75]

What follows are binders tested against DLG2_3, Q15700 (assay: holdup assay). Conditions: plain residues with an end cap or a label only (N-terminal biotin on a linker: ttds).
Parameters: key: below the threshold = too weak to quantify, mostly under pKd 3.1 to 4

Row | pKd | Binder
33 | below the threshold | RSLEEEESQL [GRASP, Q7Z6J2]
34 | 5.4 | SVWLRKETRV [CYSLTR2, Q9NS75]

What follows are binders tested against T9, MPP6, Q9NZW5 (assay: holdup assay). Conditions: plain residues with an end cap or a label only (N-terminal biotin on a linker: ttds).
Parameters: key: below the threshold = too weak to quantify, mostly under pKd 3.1 to 4

Row | pKd | Binder
35 | 3.53 | RSLEEEESQL [GRASP, Q7Z6J2]
36 | below the threshold | SVWLRKETRV [CYSLTR2, Q9NS75]

Each binder was assayed against T10, FRMPD1, Q5SYB0 (assay: holdup assay). Conditions: plain residues with an end cap or a label only (N-terminal biotin on a linker: ttds).
Parameters: key: below the threshold = too weak to quantify, mostly under pKd 3.1 to 4

Row | pKd | Binder
37 | 3.71 | RSLEEEESQL [GRASP, Q7Z6J2]
38 | below the threshold | SVWLRKETRV [CYSLTR2, Q9NS75]

These binders were tested against IL16_3, Q14005 (assay: holdup assay). Conditions: plain residues with an end cap or a label only (N-terminal biotin on a linker: ttds).
IL16_3, Q14005, sequence (Q14005 1107-1207): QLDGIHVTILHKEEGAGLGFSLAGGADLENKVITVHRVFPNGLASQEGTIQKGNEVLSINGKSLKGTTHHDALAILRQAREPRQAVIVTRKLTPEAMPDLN
Parameters: key: below the threshold = too weak to quantify, mostly under pKd 3.1 to 4

Row | pKd | Binder
39 | below the threshold | RSLEEEESQL [GRASP, Q7Z6J2]
40 | below the threshold | SVWLRKETRV [CYSLTR2, Q9NS75]

These binders were tested against T11, APBA2_2, Q99767 (assay: holdup assay). Conditions: plain residues with an end cap or a label only (N-terminal biotin on a linker: ttds).
Parameters: key: below the threshold = too weak to quantify, mostly under pKd 3.1 to 4

Row | pKd | Binder
41 | below the threshold | RSLEEEESQL [GRASP, Q7Z6J2]
42 | below the threshold | SVWLRKETRV [CYSLTR2, Q9NS75]

The binders below were run against PDLIM1, O00151 (assay: holdup assay). Conditions: plain residues with an end cap or a label only (N-terminal biotin on a linker: ttds).
PDLIM1, O00151, sequence (O00151 1-87): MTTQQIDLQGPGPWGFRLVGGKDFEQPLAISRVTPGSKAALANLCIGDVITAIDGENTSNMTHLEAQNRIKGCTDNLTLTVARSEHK
Parameters: key: below the threshold = too weak to quantify, mostly under pKd 3.1 to 4

Row | pKd | Binder
43 | 3.85 | RSLEEEESQL [GRASP, Q7Z6J2]
44 | below the threshold | SVWLRKETRV [CYSLTR2, Q9NS75]

Each binder was assayed against PICK1, Q9NRD5 (assay: holdup assay). Conditions: plain residues with an end cap or a label only (N-terminal biotin on a linker: ttds).
PICK1, Q9NRD5, sequence (Q9NRD5 17-115): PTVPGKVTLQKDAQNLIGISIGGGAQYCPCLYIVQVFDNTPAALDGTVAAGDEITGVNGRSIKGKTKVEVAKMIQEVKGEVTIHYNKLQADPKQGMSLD
Parameters: key: below the threshold = too weak to quantify, mostly under pKd 3.1 to 4

Row | pKd | Binder
45 | 3.59 | RSLEEEESQL [GRASP, Q7Z6J2]
46 | 3.42 | SVWLRKETRV [CYSLTR2, Q9NS75]

The binders below were run against T12, SIPA1L2, Q9P2F8 (assay: holdup assay). Conditions: plain residues with an end cap or a label only (N-terminal biotin on a linker: ttds).
Parameters: key: below the threshold = too weak to quantify, mostly under pKd 3.1 to 4

Row | pKd | Binder
47 | below the threshold | RSLEEEESQL [GRASP, Q7Z6J2]
48 | below the threshold | SVWLRKETRV [CYSLTR2, Q9NS75]

Each binder was assayed against FRMPD2_2, Q68DX3 (assay: holdup assay). Conditions: plain residues with an end cap or a label only (N-terminal biotin on a linker: ttds).
FRMPD2_2, Q68DX3, sequence (Q68DX3 944-1038): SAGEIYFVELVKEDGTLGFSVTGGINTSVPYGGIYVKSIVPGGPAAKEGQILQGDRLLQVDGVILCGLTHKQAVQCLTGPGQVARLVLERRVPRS
Parameters: key: below the threshold = too weak to quantify, mostly under pKd 3.1 to 4

Row | pKd | Binder
49 | below the threshold | RSLEEEESQL [GRASP, Q7Z6J2]
50 | 3.6 | SVWLRKETRV [CYSLTR2, Q9NS75]

These binders were tested against LIMK2, P53671 (assay: holdup assay). Conditions: plain residues with an end cap or a label only (N-terminal biotin on a linker: ttds).
LIMK2, P53671, sequence (P53671 143-248): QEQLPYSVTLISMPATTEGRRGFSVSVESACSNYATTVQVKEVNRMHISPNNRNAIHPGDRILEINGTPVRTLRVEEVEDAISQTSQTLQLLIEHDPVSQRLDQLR
Parameters: key: below the threshold = too weak to quantify, mostly under pKd 3.1 to 4

Row | pKd | Binder
51 | below the threshold | RSLEEEESQL [GRASP, Q7Z6J2]
52 | below the threshold | SVWLRKETRV [CYSLTR2, Q9NS75]

Source: publication PMC9482650, “Quantitative fragmentomics allow affinity mapping of interactomes” (Nature Communications, 2022)
